Results on three substances are retold here after article PMC12115362.

Assay in all cases: SEC; Agilent-1100, TSK G3000SWXL column; 0.2 M NaH2PO4, 0.1 M arginine, 1% IPA, pH 6.5; peaks integrated for approximate trimer percentage; N = 3
Assay [1] concerns the target hMPV F pre-F design K362F_G366F (subtype A2, CAN97-83 ectodomain with foldon) (human metapneumovirus, subtype A2, strain CAN97-83 | T4).
Assay [2] addresses hMPV F pre-F design N46V_T160F (subtype A2, CAN97-83 ectodomain with foldon) (human metapneumovirus, subtype A2, strain CAN97-83 | T4).
The target of assay [3] is hMPV F pre-F benchmark D185P (subtype A2, CAN97-83 ectodomain with foldon) (human metapneumovirus, subtype A2, strain CAN97-83 | T4).

The stoichiometry N is the number of molecules, sites or subunits per partner or assembly. In assay [1], “hMPV F pre-F design K362F_G366F (subtype A2, CAN97-83 ectodomain with foldon) (domain or fragment)” showed a Trimer (%) of 76.9% and a stoichiometry N of 3.
In assay [2], “hMPV F pre-F design N46V_T160F (subtype A2, CAN97-83 ectodomain with foldon) (domain or fragment)” yielded a Trimer (%) of 94.7% and a stoichiometry N of 3.
As for “hMPV F pre-F benchmark D185P (subtype A2, CAN97-83 ectodomain with foldon) (domain or fragment)”, in assay [3], the Trimer (%) amounted to 97.1% and the stoichiometry N stood at 3.
